Results taken from US9605038B2, “Fusion peptide comprising dhFas-1 domain and MMP substrate and use thereof for preventing and treating rheumatoid arthritis” (Kyungpook National University Industry-Academic Cooperation …, priority 2010, dated 2017).

How the values were obtained:
MMP2 = molecular target: T1, MMP2 (Homo sapiens, UniProt P08253); assay: Enzymatic digestion test, MMP2; assay type: biochemical; conditions: 3 ug peptide, MMP2 100, 200, 800 ng, 37° C. 4 hours
T1 sequence (P08253 110-660): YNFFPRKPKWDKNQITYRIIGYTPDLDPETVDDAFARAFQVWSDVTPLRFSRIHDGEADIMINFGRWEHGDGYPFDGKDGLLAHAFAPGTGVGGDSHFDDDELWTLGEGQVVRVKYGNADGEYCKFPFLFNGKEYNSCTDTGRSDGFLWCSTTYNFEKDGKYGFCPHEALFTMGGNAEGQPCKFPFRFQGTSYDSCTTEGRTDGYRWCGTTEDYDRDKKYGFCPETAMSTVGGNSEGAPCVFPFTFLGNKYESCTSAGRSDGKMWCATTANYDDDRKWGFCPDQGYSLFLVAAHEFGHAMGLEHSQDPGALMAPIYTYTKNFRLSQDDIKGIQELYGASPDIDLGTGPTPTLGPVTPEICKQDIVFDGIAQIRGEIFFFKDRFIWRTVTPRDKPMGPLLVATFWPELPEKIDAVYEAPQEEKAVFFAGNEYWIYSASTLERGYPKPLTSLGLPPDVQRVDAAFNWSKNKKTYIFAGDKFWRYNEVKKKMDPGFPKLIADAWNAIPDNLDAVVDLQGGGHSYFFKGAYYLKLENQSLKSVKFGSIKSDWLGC
Experimental: (§1) 3 ug of synthesized mdhFas-1-MMPsubstrate structure modified protein, together with MMP1 (5 ng, 10 ng and 50 ng), MMP2 (100 ng, 200 ng and 800 ng), MMP3 (10 ng, 50 ng and 100 ng), cathepsin D (5 ng, 10 ng and 50 ng), cathepsin L (100 ng, 200 ng and 800 ng), and cathepsin K (10 ng, 50 ng and 100 ng), was mixed with enzyme buffer (150 mM NaCl, 5 mM. CaCl2, 20 mM Tris-HCl pH7.5), and reacted at 37° C. for 4 hours. The resultant product was subjected to electrophoresis through 15% polyacrylamide gel, transferred to a Nitrocellulose Membrane (Schleicher & Schuell), blocked at room temperature for 1 hour with TBST solution containing 3% BSA (20 mmole/L Tris-HCl, 137 mmole//l NaCl, 0.1% Tween-20), washed TBST solution three times (each for 10 minutes), and reacted with primary antibody (anti-Histidine or anti-Bigh3) for 1 hour. The resultant product was washed with TBST solution three times (each for 10 minutes), reacted with a secondary antibody conjugated to horseradish peroxidase (HRP) for 1 hour, washed TBST solution three times (each for 10 minutes), and visualized by ECL (Amersham Biosciences, UK) so as to detect the change in the amount of mdhFas-1-MMPsubstrate-RGD structural peptide.

cathepsin D = cathepsin D (Homo sapiens, UniProt P07339); assay: Enzymatic digestion test, cathepsin D; assay type: biochemical; conditions: 3 ug peptide, cathepsin D 5, 10, 50 ng, 37° C. 4 hours
Chain of cathepsin D (P07339 65-412, species assumed): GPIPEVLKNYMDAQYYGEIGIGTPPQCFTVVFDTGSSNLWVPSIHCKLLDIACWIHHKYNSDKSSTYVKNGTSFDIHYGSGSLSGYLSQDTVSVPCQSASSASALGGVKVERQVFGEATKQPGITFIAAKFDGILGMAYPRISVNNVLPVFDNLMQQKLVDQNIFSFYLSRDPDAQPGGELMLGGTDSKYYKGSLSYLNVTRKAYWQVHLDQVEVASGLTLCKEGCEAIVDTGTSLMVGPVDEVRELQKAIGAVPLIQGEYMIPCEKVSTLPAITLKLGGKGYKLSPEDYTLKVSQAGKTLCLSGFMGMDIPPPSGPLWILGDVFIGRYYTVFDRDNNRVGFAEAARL
Experimental: as §1

[1] = system: foot tissue of CIA mouse (Synovial membrane, cartilage, bones; CD31, ICAM-1); assay: Histologic and immunohistochemistry test on foot tissue of CIA mouse; assay type: in vivo; conditions: CIA mouse foot tissue, 50th day, FIGS. 18 and 20
Experimental: In order to determine the action mechanism of an arthritis therapeutic effect in a CIA model, on the 50th day following the second injection of the bovine type 2 collagen (after 4 weeks from the onset (the 23rd day) of arthritis following the second injection of the bovine type 2 collagen), foot tissues of treatment groups were separated and subjected to histologic analysis. Then, in the tissues, a change in the expression of inflammatory mediators was examined.
A tissue sample was prepared by the following process. Skin on the foot tissue was removed. Then, the tissue was fixed in 10% formalin solution for 2 days, and demineralized in 10% EDTA solution. The demineralized tissue was subjected to a dehydrating process and a clearing process, paraffin-embedded, and was made into a fragment with a thickness of 3 um by a microtome. The tissue fragment was deparaffinized and re-dehydrated by 100% xylene and ethanol, and then non-specific peroxidase within the tissue was blocked by a solution of 0.3% hydrogen peroxide dissolved in 100% methanol.
In order to carry out an immunohistochemistry test, binding of non-specific protein was blocked by 5% BSA. Then, the tissue was cultured, together with each primary antibody (as endothelial cell markers, an antibody to CD31, and an antibody to ICAM-1 (intercellular adhesion molecule-1)), at 4° C. for 12 to 14 hours, and washed with washing buffer (0.1% BSA, 0.2% gelatin, 0.05% saponin). It was cultured together with a secondary antibody labeled with biotin at room temperature for 30 minutes, was washed, reacted with Vectastatin ABC kit (Vector Laboratories, U.S.), and was mounted with Eukitt mounting media (Fluka, Germany) for observation.

[2] = Toxicity test in CIA mouse (weight, serologic test, blood test); conditions: for body weight change compared to control group: 22nd day vs 48th day; for overall toxicity: serologic test, blood test, weight; for ALT / AST / BUN / Crea / PLT / RBC / WBC: CIA model, 4 weeks
Experimental: On the 48th day, a serologic test and a blood test were carried out.

B1: MFK23: fusion peptide having sequential links of mdhFas-1, MMP2 substrate GPLGVRG (SEQ ID NO: 5), and QERGDSLA (SEQ ID NO: 10) (protein)
chain: QAMPPEELNKLLANAKELTNILKYHIGDEILVSGGIGALVRLKSLQGDKLEVSSKNNVVSVNKEPVAETDIMEFGPLGVRGVDGQERGDSLAGLE
modifications: MFK23
For B1, the “cleavage through treatment with MMP-2” value (MMP2) was “concentration-dependently cleaved”, the “cleavage through treatment with cathepsin D” value (cathepsin D) was “not cleaved” and the “deformation of cartilage and bones (HE stain)” value [1] was “reduced the deformation of cartilage and bones”. The “proliferation of a Synovial membrane cell (HE stain)” value [1] was “inhibited the proliferation of a Synovial membrane cell”, the “death during the therapy period” value ([2]; CIA mouse) was “No mouse died” and the “body weight change compared to control group” value ([2]; CIA mouse) was “maintained similarly to that of the control group”. The overall toxicity ([2]; CIA mouse) was “a low toxicity and a low dangerousness”.

B2: MFK24: fusion peptide having sequential links of mdhFas-1, MMP1 substrate GPQGIAG (SEQ ID NO: 6), and QERGDSLA (SEQ ID NO: 10) (protein)
chain: QAMPPEELNKLLANAKELTNILKYHIGDEILVSGGIGALVRLKSLQGDKLEVSSKNNVVSVNKEPVAETDIMEFGPQGIAGVDGQERGDSLAGLE
modifications: MFK24
For B2, the “cleavage through treatment with MMP-2” value (MMP2) was “not cleaved”, the “cleavage through treatment with cathepsin D” value (cathepsin D) was “not cleaved” and the “deformation of cartilage and bones (HE stain)” value [1] was “reduced the deformation of cartilage and bones”. The “proliferation of a Synovial membrane cell (HE stain)” value [1] was “inhibited the proliferation of a Synovial membrane cell”, the ALT ([2]; 0.1 mg/kg) was 37.8 ± 7.1 U/L and the AST ([2]; 0.1 mg/kg) was 224.3 ± 13 U/L. For the same molecule, the BUN ([2]; 0.1 mg/kg) was 19.0 ± 3.3 mg/dL, the Crea ([2]; 0.1 mg/kg) was 0.54 ± 0.10 mg/dL and the PLT ([2]; 0.1 mg/kg) was 1280.2 ± 284 ×10^3/ul. The RBC ([2]; 0.1 mg/kg) was 12.3 ± 0.7 ×10^6/ul, the WBC ([2]; 0.1 mg/kg) was 5.0 ± 1.2 ×10^3/ul and the ALT ([2]; 1 mg/kg) was 40.6 ± 7.2 U/L. For the same molecule, the AST ([2]; 1 mg/kg) was 270.5 ± 17 U/L, the BUN ([2]; 1 mg/kg) was 21.2 ± 3.4 mg/dL and the Crea ([2]; 1 mg/kg) was 0.54 ± 0.14 mg/dL. For the same molecule, the PLT ([2]; 1 mg/kg) was 1155.3 ± 184 ×10^3/ul, the RBC ([2]; 1 mg/kg) was 10.9 ± 1.7 ×10^6/ul and the WBC ([2]; 1 mg/kg) was 3.7 ± 0.5 ×10^3/ul. For the same molecule, the ALT ([2]; 10 mg/kg) was 43.6 ± 14.2 U/L, the AST ([2]; 10 mg/kg) was 222.0 ± 25 U/L and the BUN ([2]; 10 mg/kg) was 20.4 ± 4.4 mg/dL. For the same molecule, the Crea ([2]; 10 mg/kg) was 0.54 ± 0.11 mg/dL, the PLT ([2]; 10 mg/kg) was 1050.1 ± 359 ×10^3/ul and the RBC ([2]; 10 mg/kg) was 11.4 ± 1.5 ×10^6/ul. For the same molecule, the WBC ([2]; 10 mg/kg) was 5.0 ± 1.8 ×10^3/ul, the ALT ([2]; 30 mg/kg) was 28.9 ± 8.2 U/L and the AST ([2]; 30 mg/kg) was 286.6 ± 48 U/L. For the same molecule, the BUN ([2]; 30 mg/kg) was 12.4 ± 4.8 mg/dL, the Crea ([2]; 30 mg/kg) was 0.33 ± 0.02 mg/dL and the PLT ([2]; 30 mg/kg) was 674.7 ± 111 ×10^3/ul. The RBC ([2]; 30 mg/kg) was 12.4 ± 0.1 ×10^6/ul, the WBC ([2]; 30 mg/kg) was 6.1 ± 1.1 ×10^3/ul and the “death during the therapy period” value ([2]; CIA mouse) was “No mouse died”. The “body weight change compared to control group” value ([2]; CIA mouse) was “maintained similarly to that of the control group”, the “bilirubin and creatine compared to control group” value ([2]; CIA mouse, 48th day) was “no significant difference” and the “erythrocytes, leukocytes, platelets and liver function values (AST and ALT) compared to control” value ([2]; CIA mouse, 48th day) was “did not show abnormalities”. For the same molecule, the overall toxicity ([2]; CIA mouse) was “a low toxicity and a low dangerousness”.
